Experimental data taken from patent US20220257796A1.

Biological target: CD46 (human) (UniProt P15529)
Assay: Kd of fiber knob to CD46, Table 1 (method not given)

UniProt P15529, sequence (P15529 35-343 limits assumed): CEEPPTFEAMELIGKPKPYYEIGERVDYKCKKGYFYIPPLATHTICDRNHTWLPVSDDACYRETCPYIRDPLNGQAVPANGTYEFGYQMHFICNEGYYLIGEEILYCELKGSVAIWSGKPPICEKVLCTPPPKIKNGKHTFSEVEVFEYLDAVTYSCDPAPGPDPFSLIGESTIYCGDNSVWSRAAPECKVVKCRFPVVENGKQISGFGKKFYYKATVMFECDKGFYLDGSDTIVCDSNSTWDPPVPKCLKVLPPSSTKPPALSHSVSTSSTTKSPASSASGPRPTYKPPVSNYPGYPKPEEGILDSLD

| Substance | Kd [nM] |
| --- | --- |
| Ad11 (fiber knob) (from UniProt P33681) | 11.2 |
| Ad35 fiber knob mutant A8: Ile192Val Ile256Val (from UniProt Q92854) | 13.7 |
| Ad35 fiber knob mutant B4: Thr245Ala (from UniProt Q8NHJ6) | 7.64 |
| Ad35 fiber knob mutant B5: Ile256Leu (from UniProt P46977) | 11 |
